Assay results from patent US6261760A, “Regulation of the cell cycle by sterols” (priority 1999, dated 2001).

System: LDL FC uptake by fibroblast monolayers
Assay: Effects of metabolic inhibitors on uptake of 3H-cholesterol from LDL (Example 1)
Settings: cells pretreated with proteinase K; 4 experiments

B1: proteinase K: proteinase K pretreatment of cells (protein, UniProt P06873 106-384, looked up)
Proteinase K: AAQTNAPWGLARISSTSPGTSTYYYDESAGQGSCVYVIDTGIEASHPEFEGRAQMVKTYYYSSRDGNGHGTHCAGTVGSRTYGVAKKTQLFGVKVLDDNGSGQYSTIIAGMDFVASDKNNRNCPKGVVASLSLGGGYSSSVNSAAARLQSSGVMVAVAAGNNNADARNYSPASEPSVCTVGASDRYDRRSSFSNYGSVLDIFGPGTSILSTWIGGSTRSISGTSMATPHVAGLAAYLMTLGKTTAASACRYIADTANKGDLSNIPFGTVNLLAYNNYQA
- inhibition of uptake of 3H-FC LDL label: 7±6%
